Each block holds one binder with its values, some of them ahead of it.
Columns and labels:
[1] = target: T1, BCMA (human, UniProt Q02223 1-184); test: flow cytometry on Raji cells (non-MM line, sheet group NEGATIVE for BCMA); ratio of MFI to isotype IgG2a-488; reflects absence of the target on these cells
T1 construct: whole, on cells; Endogenous on human cell lines and patient cells, or from plasmid pCDNA3.1 hBCMA in ARH-77 cells; also called CD269; TNFRSF17
T1 sequence (looked up): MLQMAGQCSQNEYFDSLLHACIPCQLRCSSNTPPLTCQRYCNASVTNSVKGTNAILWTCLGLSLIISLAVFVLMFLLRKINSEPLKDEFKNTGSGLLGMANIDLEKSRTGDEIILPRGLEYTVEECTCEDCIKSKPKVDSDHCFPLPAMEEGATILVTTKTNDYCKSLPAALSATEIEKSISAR

[2] = target: T1, BCMA; test: flow cytometry, CD138+ gated bone marrow cells of patient GSK064 (group LOW); ratio of MFI to IgG2a-488 control
[3] = target: T1, BCMA; test: flow cytometry, CD138+ gated bone marrow cells of patient GSK034 (group MODERATE); ratio of MFI to IgG2a-488 control
[4] = target: T1, BCMA; test: flow cytometry, CD138+ gated bone marrow cells of patient GSK072 (group LOW); ratio of MFI to IgG2a-488 control
[5] = target: T1, BCMA; test: flow cytometry on JIM3 cells (sheet group MODERATE); ratio of MFI to isotype IgG2a-488
[6] = target: T1, BCMA; test: flow cytometry, CD138+ gated bone marrow cells of patient GSK045 (group MODERATE); ratio of MFI to IgG2a-488 control
[7] = target: T1, BCMA; test: flow cytometry on H929 cells (sheet group HIGH); ratio of MFI of BCMA stained to isotype IgG2a-488 stained cells
[8] = target: T1, BCMA; test: flow cytometry on Daudi cells (non-MM line; group LOW); ratio of MFI to isotype IgG2a-488
[9] = target: T1, BCMA; test: flow cytometry on JJN3 cells (printed JIN3 on the sheet; group MODERATE); ratio of MFI to isotype IgG2a-488
[10] = target: T1, BCMA; test: flow cytometry inset, high BCMA-transduced (HIGH) ARH77 cells; ratio to isotype control
[11] = target: T1, BCMA; test: flow cytometry on KMM1 cells (sheet group NEGATIVE, text: low BCMA expression); ratio of MFI to isotype IgG2a-488; reflects the low level of the target on these cells
[12] = target: T1, BCMA; test: flow cytometry on OPM2 cells (sheet group MODERATE); ratio of MFI to isotype IgG2a-488
[13] = target: T1, BCMA; test: flow cytometry on U266 cells (sheet group MODERATE); ratio of MFI to isotype IgG2a-488
[14] = target: T1, BCMA; test: flow cytometry on MM1.s cells (sheet group MODERATE); ratio of MFI to isotype IgG2a-488
[15] = target: T1, BCMA; test: flow cytometry, CD138+ gated bone marrow cells of patient GSK048 (group HIGH); ratio of MFI to IgG2a-488 control
[16] = target: T1, BCMA; test: flow cytometry on RPMI8226 cells (printed RPM18226; group LOW); ratio of MFI to isotype IgG2a-488
[17] = target: T1, BCMA; test: flow cytometry on SUPT1 cells (non-MM line, sheet group NEGATIVE for BCMA); ratio of MFI to isotype IgG2a-488; reflects absence of the target on these cells
[18] = target: T1, BCMA; test: flow cytometry inset, non-transduced (NT) ARH77 cells with negligible surface BCMA; ratio to isotype control
[19] = target: T1, BCMA; test: flow cytometry, CD138+ gated bone marrow cells of patient GSK050 (group MODERATE); ratio of MFI to IgG2a-488 control
[20] = target: T1, BCMA; test: flow cytometry inset, low BCMA-transduced (LOW) ARH77 cells; ratio to isotype control
[21] = target: T1, BCMA; test: flow cytometry, CD138+ gated bone marrow cells of patient GSK039 (group HIGH); ratio of MFI to IgG2a-488 control
[22] = target: T1, BCMA; test: flow cytometry of CD138+ cells of patient GSK087; number in the title of panel IV
Method: (§1) FIG. 14: J6M0-MMAF activity on primary CD138+ cells. (A) BM MNCs from one representative patient (GSK 087) with moderate BCMA expression incubated with J6M0-MMAF. Viable CD138+ cells (percentage of control) after 2 and 6 days (left panel) obtained by analyzing CD138+ cells by flow cytometry and gating CD138+ fraction (middle panel) onto AnnexinV/PI dot-plot (right panel). (B) Four representative experiments showing viable CD138+ cells after culture of BM MNCs from myeloma patients with concentrations of J6M0-MMAF at varying time points. For each patient, histogram showing binding of J6M0-wtFc PE to CD138+ cells (black) compared to cells pre-incubated with Fc block as control (white) and where available IHC staining with MIB1 (pink, nuclear) and CD138 (membrane, brown) as a measure of plasma cell proliferation.
(§2) For assessment of surface BCMA expression, murine anti-BCMA (clone 5307118G03, conjugated to AlexaFluor488), and the humanised antibody, J6M0-wtFc conjugated to PE were used in parallel. In the case of primary MM cells, staining was carried out on bone marrow (BM) mononuclear cells (MNCs) in 100μl PBS (Lonza)/0.5% BSA(PAA), using anti CD138 APC (Miltenyi), to identify tumour cells. […] A semi-quantitative measure of BCMA surface expression on MM cells was obtained from the ratio of the MFI of anti BCMA, versus isotype control stained samples (MFI ratio).

[23] = target: T1, BCMA; test: flow cytometry of CD138+ cells of patient GSK085; number in the title of panel III
Method: as §1, §2

[24] = target: T1, BCMA; test: flow cytometry of CD138+ cells of patient GSK048; number in the title of panel II
Method: as §1, §2

MFIr [1]: 1.2
MFIr [2]: 2.5
MFIr [3]: 4.8
MFIr [4]: 2
MFIr [5]: 5.7
MFIr [6]: 3.8
MFIr [7]: 15.3
MFIr [8]: 2.9
MFIr [9]: 4.6
MFIr [10]: 54.8
MFIr [11]: 1.1
MFIr [12]: 4.5
MFIr [13]: 5.8
MFIr [14]: 6.8
MFIr [15]: 11.2
MFIr [16]: 2
MFIr [17]: 1
MFIr [18]: 1.8
MFIr [19]: 6
MFIr [20]: 16.6
MFIr [21]: 11.2
B1: S307118G03 (antibody, from another filing, mouse IgG2a, V domains shown)
VH: EVQLQQSGPELVKPGASVKISCKASGYTFTDYYMKWVKQSHGKSLEWIGEIYPNNGGITYNQKFKGKATLTVDKSSSTAYMELRSLTSEDSAVYYCANGYEFVYWGQGTLVTVSA
VL: DIQMTQTASSLSASLGDRVTISCSASQGISNYLNWYQQKPDGTVKLLIYYTSSLHSGVPSRFSGSGSGTDYSLTISNLEPEDIATYYCQQYSKLPWTFGGGTKLEIKR

MFI ratio [22]: 7
MFI ratio [23]: 3.65
MFI ratio [24]: 16.7
B2: J6M0-wtFc (antibody, IgG1, V domains shown)
VH: QVQLVQSGAEVKKPGSSVKVSCKASGGTFSNYWMHWVRQAPGQGLEWMGATYRGHSDTYYNQKFKGRVTITADKSTSTAYMELSSLRSEDTAVYYCARGAIYDGYDVLDNWGQGTLVTVSS
VL: DIQMTQSPSSLSASVGDRVTITCSASQDISNYLNWYQQKPGKAPKLLIYYTSNLHSGVPSRFSGSGSGTDFTLTISSLQPEDFATYYCQQYRKLPWTFGQGTKLEIKR
notes: PE-conjugated for flow cytometry; no sentence says it outright; also called J6M0-wtFc PE; wild type Fc form of J6M0

— patent publication US20180306791A1 (GlaxoSmithKline, published 2018)
